According to US20190359653A1 (Genentech, published 2019):
Ends that are not written are not given here.

T1: hsFRP-4 (human, UniProt Q6FHJ7 22-346, limits assumed)
T1 construct: bought (R&D Systems); also called human sFRP4
T1 sequence (looked up): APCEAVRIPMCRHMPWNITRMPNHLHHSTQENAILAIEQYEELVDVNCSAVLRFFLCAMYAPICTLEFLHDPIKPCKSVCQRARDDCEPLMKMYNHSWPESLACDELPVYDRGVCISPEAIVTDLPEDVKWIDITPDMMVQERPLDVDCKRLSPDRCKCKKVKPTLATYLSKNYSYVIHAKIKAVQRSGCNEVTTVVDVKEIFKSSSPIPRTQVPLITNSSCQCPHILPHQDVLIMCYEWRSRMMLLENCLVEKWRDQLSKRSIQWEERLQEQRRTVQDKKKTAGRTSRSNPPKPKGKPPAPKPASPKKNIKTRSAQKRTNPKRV

T2: hsFRP-3 (human, UniProt Q92765 33-325)
T2 construct: bought (R&D Systems); also called human sFRP3
T2 sequence (looked up): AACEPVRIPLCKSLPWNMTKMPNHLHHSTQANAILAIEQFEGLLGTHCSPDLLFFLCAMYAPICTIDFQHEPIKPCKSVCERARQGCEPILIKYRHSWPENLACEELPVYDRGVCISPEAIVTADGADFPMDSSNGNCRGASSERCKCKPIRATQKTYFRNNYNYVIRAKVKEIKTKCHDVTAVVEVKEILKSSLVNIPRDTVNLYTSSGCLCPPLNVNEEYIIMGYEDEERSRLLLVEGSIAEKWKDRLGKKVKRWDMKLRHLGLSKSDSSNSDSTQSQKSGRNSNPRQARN

T3: hsFRP1 (human, UniProt Q8N474 32-314)
T3 construct: bought (R&D Systems); also called human sFRP1
T3 sequence (looked up): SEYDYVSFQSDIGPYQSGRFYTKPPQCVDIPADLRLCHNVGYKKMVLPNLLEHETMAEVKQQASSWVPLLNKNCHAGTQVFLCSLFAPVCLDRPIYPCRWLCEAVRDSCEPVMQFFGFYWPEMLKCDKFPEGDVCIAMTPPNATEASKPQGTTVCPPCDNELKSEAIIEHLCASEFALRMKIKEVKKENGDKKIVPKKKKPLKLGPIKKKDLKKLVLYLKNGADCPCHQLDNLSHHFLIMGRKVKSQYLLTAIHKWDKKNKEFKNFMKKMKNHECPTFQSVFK

T4: hsFRP-5 (human, UniProt Q5T4F7 30-317)
T4 construct: bought (R&D Systems); also called human sFRP5
T4 sequence (looked up): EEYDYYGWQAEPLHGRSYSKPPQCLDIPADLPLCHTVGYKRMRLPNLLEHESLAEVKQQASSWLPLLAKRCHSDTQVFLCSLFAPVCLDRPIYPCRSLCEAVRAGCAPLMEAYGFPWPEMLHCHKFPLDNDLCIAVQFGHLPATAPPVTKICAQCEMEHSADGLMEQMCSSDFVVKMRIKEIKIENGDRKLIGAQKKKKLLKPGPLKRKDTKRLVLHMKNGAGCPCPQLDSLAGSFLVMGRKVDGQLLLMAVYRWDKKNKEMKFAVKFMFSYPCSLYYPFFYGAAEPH

T5: hsFRP2 (human, UniProt Q96HF1 25-295)
T5 construct: bought (R&D Systems); also called human sFRP2
T5 sequence (looked up): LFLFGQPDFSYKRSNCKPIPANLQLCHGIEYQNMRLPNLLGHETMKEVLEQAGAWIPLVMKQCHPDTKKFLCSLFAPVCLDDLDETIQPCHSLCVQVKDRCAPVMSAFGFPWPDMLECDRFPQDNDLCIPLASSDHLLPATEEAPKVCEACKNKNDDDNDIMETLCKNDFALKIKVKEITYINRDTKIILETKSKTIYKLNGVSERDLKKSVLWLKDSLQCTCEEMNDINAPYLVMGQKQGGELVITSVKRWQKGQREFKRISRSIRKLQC

T6: hFZD10 CRD-Fc (human, UniProt Q9ULW2 21-161, limits assumed)
T6 construct: domain: CRD; bought (R&D Systems); not shown: Fc part
T6 sequence (looked up): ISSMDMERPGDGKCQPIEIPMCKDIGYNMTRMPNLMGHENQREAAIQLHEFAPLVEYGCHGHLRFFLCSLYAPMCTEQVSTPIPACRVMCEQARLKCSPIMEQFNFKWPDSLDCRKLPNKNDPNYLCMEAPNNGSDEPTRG

T7: mFZD9 CRD-Fc (mouse, UniProt Q9R216 24-176, limits assumed)
T7 construct: domain: CRD; bought (R&D Systems); not shown: Fc part
T7 sequence (looked up): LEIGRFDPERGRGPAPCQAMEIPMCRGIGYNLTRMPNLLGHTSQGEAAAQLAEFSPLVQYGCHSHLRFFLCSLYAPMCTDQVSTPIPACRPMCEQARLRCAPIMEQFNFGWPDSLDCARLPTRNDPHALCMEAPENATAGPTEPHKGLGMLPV

T8: hFZD8 CRD-Fc (human, UniProt Q9H461 28-158, limits assumed)
T8 construct: domain: CRD; bought (R&D Systems); not shown: Fc part
T8 sequence (looked up): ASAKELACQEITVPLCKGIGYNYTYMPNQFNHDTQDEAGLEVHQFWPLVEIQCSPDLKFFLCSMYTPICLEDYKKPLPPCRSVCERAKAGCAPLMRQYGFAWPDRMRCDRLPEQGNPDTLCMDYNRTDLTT

T9: hFZD4 CRD-Fc (human, UniProt Q9ULV1 37-180, limits assumed)
T9 construct: domain: CRD; bought (R&D Systems); not shown: Fc part
T9 sequence (looked up): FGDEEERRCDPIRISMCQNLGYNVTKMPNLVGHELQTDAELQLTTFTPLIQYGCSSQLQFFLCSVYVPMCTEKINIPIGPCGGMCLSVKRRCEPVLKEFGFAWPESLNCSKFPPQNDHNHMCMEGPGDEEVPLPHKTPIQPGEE

T10: hFZD5 CRD-Fc (human, UniProt Q13467 27-167, limits assumed)
T10 construct: domain: CRD; bought (R&D Systems); not shown: Fc part
T10 sequence (looked up): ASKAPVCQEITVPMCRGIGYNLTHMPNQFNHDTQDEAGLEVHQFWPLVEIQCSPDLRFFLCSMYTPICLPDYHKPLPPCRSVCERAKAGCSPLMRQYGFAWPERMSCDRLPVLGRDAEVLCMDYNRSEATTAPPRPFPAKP


Experiments:
hsFRP-4 = molecular target: T1, hsFRP-4; assay: fluorescence size-exclusion chromatography (FSEC)
hsFRP-3 = molecular target: T2, hsFRP-3; assay: fluorescence size-exclusion chromatography (FSEC)
hsFRP1 = molecular target: T3, hsFRP1; assay: fluorescence size-exclusion chromatography (FSEC)
hsFRP-5 = molecular target: T4, hsFRP-5; assay: fluorescence size-exclusion chromatography (FSEC)
hsFRP2 = molecular target: T5, hsFRP2; assay: fluorescence size-exclusion chromatography (FSEC)
hFZD10 CRD-Fc = molecular target: T6, hFZD10 CRD-Fc; assay: fluorescence titration, 50 nM labelled peptide vs FZD CRD-Fc dilutions (Monolith NT.115); NC = no change
mFZD9 CRD-Fc = molecular target: T7, mFZD9 CRD-Fc; assay: as above
hFZD8 CRD-Fc = molecular target: T8, hFZD8 CRD-Fc; assay: as above
hFZD4 CRD-Fc = molecular target: T9, hFZD4 CRD-Fc; assay: as above
hFZD5 CRD-Fc = molecular target: T10, hFZD5 CRD-Fc; assay: as above
mFZD2 CRD-Fc [1] = molecular target: T11, mFZD2 CRD-Fc (mouse, UniProt Q9JIP6 29-178, limits assumed); assay: fluorescence titration, 50 nM labelled peptide vs FZD CRD-Fc dilutions (Monolith NT.115)
T11 construct: domain: CRD; bought (R&D Systems); not shown: Fc part

hFZD1 CRD-Fc = molecular target: T12, hFZD1 CRD-Fc (human, UniProt Q9UP38 70-250, limits assumed); assay: as above
T12 construct: domain: CRD; bought (R&D Systems); not shown: Fc part
T12 sequence (Q9UP38 70-250 limits assumed): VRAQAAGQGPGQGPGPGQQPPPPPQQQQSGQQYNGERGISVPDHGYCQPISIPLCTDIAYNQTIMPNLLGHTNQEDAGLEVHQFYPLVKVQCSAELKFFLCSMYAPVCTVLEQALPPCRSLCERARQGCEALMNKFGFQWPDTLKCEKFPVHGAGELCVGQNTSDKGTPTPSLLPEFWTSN

hFZD7 CRD-Fc [2] = molecular target: T13, hFZD7 CRD-Fc (human, UniProt O75084 33-185); assay: as above
mFZD7 CRD-Fc [3] = molecular target: T14, mFZD7 CRD-Fc (mouse, UniProt Q61090 33-185); assay: as above
mFZD2 CRD-Fc [4] = molecular target: T11, mFZD2 CRD-Fc; assay: fluorescence titration, 50 nM labelled peptide vs FZD CRD-Fc dilutions (Monolith NT.115); NC = no change
hFZD7 CRD-Fc [5] = molecular target: T13, hFZD7 CRD-Fc; assay: as above
mFZD7 CRD-Fc [6] = molecular target: T14, mFZD7 CRD-Fc; assay: as above
[7] = molecular target: T15, FZD7 receptor of HEK293-TB cells (human, UniProt O75084 33-574); assay: cell-based or functional assay
[8] = molecular target: T15, FZD7 receptor of HEK293-TB cells; assay: cell-based or functional assay; remark: listed apart in the source
[9] = molecular target: T15, FZD7 receptor of HEK293-TB cells; assay: cell-based or functional assay; remark: listed apart in the source

Row | Binder | binding result (hsFRP-4) | binding result (hsFRP-3) | binding result (hsFRP1) | binding result (hsFRP-5) | binding result (hsFRP2) | binding result (hFZD10 CRD-Fc) | binding result (mFZD9 CRD-Fc) | binding result (hFZD8 CRD-Fc) | binding result (hFZD4 CRD-Fc) | binding result (hFZD5 CRD-Fc) | also measured
1 | LPSDDLEFWCHVMY-NH2 (also: 5-carboxyfluorescein (5FAM) label, site not given here, synthetic) [5FAM-Fz7-21] | no binding (tested: 10 µM peptide, ~250 nM sFRP) | no binding (tested: 10 µM peptide, ~250 nM sFRP) | no binding (tested: 10 µM peptide, ~250 nM sFRP) | no binding (tested: 10 µM peptide, ~250 nM sFRP) | no binding (tested: 10 µM peptide, ~250 nM sFRP) | no binding | no binding | no binding | no binding | no binding | EC50 (mFZD2 CRD-Fc [1]): 60 nM; EC50 (hFZD1 CRD-Fc): 39 nM; EC50 (hFZD7 CRD-Fc [2]): 116 nM; EC50 (mFZD7 CRD-Fc [3]): 67 nM
2 | LPSDDLEFWSHVMY-NH2 (also: 5-carboxyfluorescein (5FAM) label, site not given here, synthetic control peptide (C10S)) [5FAM-Fz7-21S] | no binding (tested: 10 µM peptide, ~250 nM sFRP) | no binding (tested: 10 µM peptide, ~250 nM sFRP) | no binding (tested: 10 µM peptide, ~250 nM sFRP) | no binding (tested: 10 µM peptide, ~250 nM sFRP) | no binding (tested: 10 µM peptide, ~250 nM sFRP) | no binding | no binding | no binding | no binding | no binding | binding result (mFZD2 CRD-Fc [4]): no binding; binding result (hFZD7 CRD-Fc [5]): no binding; binding result (mFZD7 CRD-Fc [6]): no binding
3 | Ac-LPSDDLEFWCHVMY-NH2 [Fz7-21] | – | – | – | – | – | – | – | – | – | – | IC50 (nM), TOPbrite reporter assay in HEK293-TB cells stimulated with mWnt3a (50 ng/mL) [7]: 465 nM; Reduction in fold potency vs. dimer [7]: 42 fold; IC50, Wnt1-stimulated β-catenin signaling, HEK293-TB cells transfected with 5 ng plasmid (FIG. 2C) [8]: 1090 nM; IC50, Wnt1-stimulated β-catenin signaling, HEK293-TB cells transfected with 25 ng plasmid (FIG. 2C) [8]: 2660 nM; IC50, Wnt3a-stimulated β-catenin signaling, HEK293-TB cells transfected with 5 ng pCDNA3.2-Wnt3a (FIG. 2B) [8]: 330 nM; IC50, Wnt3a-stimulated β-catenin signaling, HEK293-TB cells transfected with 25 ng pCDNA3.2-Wnt3a (FIG. 2B) [8]: 419 nM; IC50, Wnt3a-stimulated β-catenin signaling, HEK293-TB cells, recombinant mWnt3a 50 ng/mL (FIG. 2A) [8]: 93.7 nM; IC50 (µM), Wnt3a-mediated β-catenin signaling, TOPbrite reporter in HEK293-TB cells (50 ng/mL mWnt3a) [9]: 0.1 µM
